Reference: article PMC2593743 (Nature structural & molecular biology, 2008)

How the values were obtained:
[1] = biological target: T1, human spastin MIT domain (residues 112-195), purified (human, UniProt Q9UBP0-1 112-195); assay: SPR
T1 sequence (looked up): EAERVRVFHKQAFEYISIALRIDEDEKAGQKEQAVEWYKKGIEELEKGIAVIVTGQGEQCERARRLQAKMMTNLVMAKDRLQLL

[2] = biological target: T2, VPS4A MIT domain, recombinant (His6-VPS4 MIT) (UniProt Q9UN37 2-80); assay: SPR
T2 sequence (looked up): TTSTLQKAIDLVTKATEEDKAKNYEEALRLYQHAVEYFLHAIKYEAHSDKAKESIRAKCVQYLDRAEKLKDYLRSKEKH

B1: polyhistidine-tagged CHMP1B-CTR (residues 126-199), wild type (domain or fragment, human, UniProt Q7LBR1 126-199, looked up)
chain: DVQTQQMEDTMSSTTTLTTPQNQVDMLLQEMADEAGLDLNMELPQGQTGSVGTSVASAEQDELSQRLARLRDQV
B1 was tested, and the Kd [1] was 12 µM and the Kd [2] was 33 µM.
